Laboratory results as given in US20240287172A1 (SCIRHOM, published 2024).

Columns and labels:
hiR2-FL-T578A-T7 = target: T1, hiR2-FL-T578A-T7 (human, UniProt Q6PJF5 1-856); assay: FACS on MEF-DKO cells expressing the variant, 3 µg/ml antibody
T1 sequence: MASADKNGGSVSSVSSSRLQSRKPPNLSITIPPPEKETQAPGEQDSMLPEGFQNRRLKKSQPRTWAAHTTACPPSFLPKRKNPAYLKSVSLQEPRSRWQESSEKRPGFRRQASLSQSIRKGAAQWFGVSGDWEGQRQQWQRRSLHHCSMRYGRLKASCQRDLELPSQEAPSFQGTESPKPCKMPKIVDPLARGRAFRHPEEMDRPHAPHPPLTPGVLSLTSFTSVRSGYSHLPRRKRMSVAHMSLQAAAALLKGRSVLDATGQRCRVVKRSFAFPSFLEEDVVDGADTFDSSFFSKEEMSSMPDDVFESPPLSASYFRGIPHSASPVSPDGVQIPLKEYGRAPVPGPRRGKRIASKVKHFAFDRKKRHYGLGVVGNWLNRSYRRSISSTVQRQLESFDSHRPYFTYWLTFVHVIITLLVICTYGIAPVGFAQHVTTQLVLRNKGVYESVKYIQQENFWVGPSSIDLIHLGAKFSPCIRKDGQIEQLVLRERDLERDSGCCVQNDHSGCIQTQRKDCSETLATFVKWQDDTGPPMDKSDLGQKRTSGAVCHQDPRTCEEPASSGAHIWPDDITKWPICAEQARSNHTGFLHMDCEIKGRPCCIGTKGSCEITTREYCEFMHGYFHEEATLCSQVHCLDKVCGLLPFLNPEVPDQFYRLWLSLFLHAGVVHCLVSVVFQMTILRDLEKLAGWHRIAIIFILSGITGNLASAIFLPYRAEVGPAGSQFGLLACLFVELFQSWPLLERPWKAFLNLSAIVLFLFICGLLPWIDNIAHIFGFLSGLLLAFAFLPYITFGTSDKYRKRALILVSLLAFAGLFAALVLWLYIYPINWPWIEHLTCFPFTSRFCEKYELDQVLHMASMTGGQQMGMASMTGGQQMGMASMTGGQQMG
Method in brief: (§1)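 Pelleted cells are resuspended in antibody at 3 μg/ml and kept on ice 1 hour, washed, then incubated with PE goat anti-mouse IgG F(ab′)2 diluted 1:100 on ice for 1 hour protected from light, washed again and analysed by flow cytometry.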

hiR2-FL-Q580A-T7 = target: T2, hiR2-FL-Q580A-T7 (human, UniProt Q6PJF5 1-856); assay: as above
T2 sequence: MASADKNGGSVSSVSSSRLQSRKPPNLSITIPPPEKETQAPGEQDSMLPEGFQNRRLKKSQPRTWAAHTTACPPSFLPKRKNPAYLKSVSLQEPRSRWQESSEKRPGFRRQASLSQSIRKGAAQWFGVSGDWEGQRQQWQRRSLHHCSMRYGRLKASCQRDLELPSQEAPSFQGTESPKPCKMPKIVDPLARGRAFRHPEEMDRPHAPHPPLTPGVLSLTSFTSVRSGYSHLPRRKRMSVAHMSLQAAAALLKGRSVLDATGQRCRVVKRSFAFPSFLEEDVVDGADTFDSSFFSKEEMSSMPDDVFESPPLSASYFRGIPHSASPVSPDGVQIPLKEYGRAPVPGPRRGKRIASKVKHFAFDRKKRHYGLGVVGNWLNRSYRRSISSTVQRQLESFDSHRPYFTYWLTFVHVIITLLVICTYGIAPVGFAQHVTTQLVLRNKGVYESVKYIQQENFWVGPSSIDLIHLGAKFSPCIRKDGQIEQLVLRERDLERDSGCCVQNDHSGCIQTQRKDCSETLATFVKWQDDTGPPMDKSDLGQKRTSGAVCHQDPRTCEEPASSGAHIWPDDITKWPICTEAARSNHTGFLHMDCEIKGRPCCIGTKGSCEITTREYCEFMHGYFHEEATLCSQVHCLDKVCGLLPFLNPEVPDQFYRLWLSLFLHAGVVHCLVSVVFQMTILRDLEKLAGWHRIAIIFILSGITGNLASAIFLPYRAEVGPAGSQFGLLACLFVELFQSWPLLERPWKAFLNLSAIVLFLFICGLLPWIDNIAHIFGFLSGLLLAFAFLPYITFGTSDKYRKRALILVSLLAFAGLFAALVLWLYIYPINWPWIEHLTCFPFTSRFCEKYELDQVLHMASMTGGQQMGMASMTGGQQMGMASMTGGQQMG
Method in brief: as §1

B1: antibody 3 (antibody, V domains shown)
VH: QVTLKESGPGILQPSQTLSLTCSFSGFSLTTFAMGIGWVRQPSGKGLEWLAHIWWDGEKYNNPVLKSRLTISKDTSKNQVFLRIANVDTPDTATYYCARISSIYYIIDNWGQGTSVTVSS
VL: DIVLTQSPATLSVTPGHSVSLSCRASQSISNNLHWYQKKSHESPRLLIKYVSQSISGIPSRFSGSGSGTDFTLSINSVETEDFGMYFCQQSYNWPLTFGAGTKLELK
notes: mouse IgG, kappa light chain; also called clone #3; purified antibody 3
hiR2-FL-T578A-T7
  loss of binding vs wild type: ≥ 30%
hiR2-FL-Q580A-T7
  loss of binding vs wild type: ≥ 30%
